The test deals with mouse TR3 (mouse) (UniProt Q925D8). Nature of the test: flow cytometry on ConA-activated murine CD8+ T-cells, control stain. (Flow cytometry measures light scatter and fluorescence of single cells or particles in a stream.)
Sequence of UniProt Q925D8 (Q925D8 whole entry): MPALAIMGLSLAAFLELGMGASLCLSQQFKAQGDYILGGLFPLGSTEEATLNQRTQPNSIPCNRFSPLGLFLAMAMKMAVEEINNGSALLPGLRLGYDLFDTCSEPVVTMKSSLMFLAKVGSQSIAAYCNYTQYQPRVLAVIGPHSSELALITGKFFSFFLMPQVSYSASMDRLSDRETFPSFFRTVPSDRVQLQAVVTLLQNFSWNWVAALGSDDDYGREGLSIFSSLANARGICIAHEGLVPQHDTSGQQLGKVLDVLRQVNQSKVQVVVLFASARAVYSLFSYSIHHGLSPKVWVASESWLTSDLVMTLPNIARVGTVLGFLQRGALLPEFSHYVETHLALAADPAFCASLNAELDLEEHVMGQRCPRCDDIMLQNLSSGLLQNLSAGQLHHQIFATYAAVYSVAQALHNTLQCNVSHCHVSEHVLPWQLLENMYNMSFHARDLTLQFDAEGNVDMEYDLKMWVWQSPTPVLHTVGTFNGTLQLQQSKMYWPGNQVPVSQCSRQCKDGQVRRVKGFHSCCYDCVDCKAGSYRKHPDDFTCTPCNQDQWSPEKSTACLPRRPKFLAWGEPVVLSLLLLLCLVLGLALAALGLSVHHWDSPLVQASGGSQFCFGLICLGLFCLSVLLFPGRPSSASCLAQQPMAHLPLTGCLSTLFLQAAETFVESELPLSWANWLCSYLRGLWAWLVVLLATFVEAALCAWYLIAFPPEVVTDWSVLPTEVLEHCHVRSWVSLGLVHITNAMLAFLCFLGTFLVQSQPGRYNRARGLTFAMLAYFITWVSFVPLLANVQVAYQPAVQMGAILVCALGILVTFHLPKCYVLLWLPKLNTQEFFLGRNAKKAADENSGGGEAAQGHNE

As for “normal (non-immune) rat serum (antibody)”, the percent of cells within the marker-1 (M1, unstained) region was found to be 99%.

The values above are taken from patent US6994976.
